According to PMC4253602 (Molecular oncology, 2014):
Read-outs that look alike come from different tables or passages of the source.

T1: full-length wt-AR (VP16 fusion) (human, UniProt P10275 1-920)
T1 sequence (looked up): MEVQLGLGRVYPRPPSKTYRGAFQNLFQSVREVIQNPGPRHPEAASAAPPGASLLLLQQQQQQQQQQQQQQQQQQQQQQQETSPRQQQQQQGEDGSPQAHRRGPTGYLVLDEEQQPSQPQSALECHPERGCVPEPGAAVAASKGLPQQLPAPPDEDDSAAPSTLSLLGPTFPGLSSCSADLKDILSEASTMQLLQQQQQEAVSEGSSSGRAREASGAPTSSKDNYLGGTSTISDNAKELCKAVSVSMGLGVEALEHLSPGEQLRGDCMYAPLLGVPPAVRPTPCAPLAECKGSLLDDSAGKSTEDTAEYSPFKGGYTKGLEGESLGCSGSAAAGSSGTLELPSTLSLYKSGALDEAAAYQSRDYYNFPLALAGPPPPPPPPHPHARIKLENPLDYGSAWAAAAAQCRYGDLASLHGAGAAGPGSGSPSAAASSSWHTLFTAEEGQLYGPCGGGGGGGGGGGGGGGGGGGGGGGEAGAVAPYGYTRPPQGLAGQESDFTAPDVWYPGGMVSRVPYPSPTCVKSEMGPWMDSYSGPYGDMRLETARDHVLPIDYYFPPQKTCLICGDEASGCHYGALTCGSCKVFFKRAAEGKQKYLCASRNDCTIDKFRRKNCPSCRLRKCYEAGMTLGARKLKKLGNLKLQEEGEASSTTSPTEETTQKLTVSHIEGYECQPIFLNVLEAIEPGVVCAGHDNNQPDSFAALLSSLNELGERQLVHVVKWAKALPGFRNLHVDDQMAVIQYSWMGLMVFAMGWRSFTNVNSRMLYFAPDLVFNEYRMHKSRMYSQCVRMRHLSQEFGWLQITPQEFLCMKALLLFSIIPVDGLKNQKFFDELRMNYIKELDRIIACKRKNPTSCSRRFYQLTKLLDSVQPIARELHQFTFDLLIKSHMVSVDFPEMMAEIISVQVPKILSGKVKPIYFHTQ


Assays:
[1] = target: C320-HY (biotinylated peptide); test: SPR
[2] = target: ARN20-WY (biotinylated peptide) (human); test: SPR
[3] = target: C320-WY (biotinylated peptide); test: SPR
[4] = target: ARN20-HY (biotinylated peptide) (human); test: SPR
[5] = target: ARN20-FY (biotinylated peptide) (human); test: SPR
[6] = target: ARN20-LY (biotinylated peptide) (human); test: SPR
C320-LY (Biotin-C320) = test: SPR
[7] = target: C320-YY (biotinylated peptide); test: SPR
[8] = target: full-length T877A-AR (VP16 fusion) (human); test: two-hybrid
[9] = target: full-length T877A-AR (VP16 fusion) (human); test: two-hybrid; remark: listed apart in the source
[10] = target: T1, full-length wt-AR (VP16 fusion); test: two-hybrid

Molecule	two-hybrid reporter activity (Gal-4 = 1) [8]	two-hybrid reporter activity (Gal-4 = 1) [9]	two-hybrid reporter activity (Gal-4 = 1) [10]	also measured
wild-type AR-DBD-LBD (domain or fragment)	–	–	–	Kd [1]: 38000 nM; Kd [2]: 500 nM; Kd [3]: 140 nM; Kd [4]: 140000 nM; Kd [5]: 38 nM; Kd [6]: 100 nM; Kd (C320-LY (Biotin-C320)): 30 nM; Kd [7]: 3800 nM
NTPLFQTFYNQR [B45 (Gal-4 fusion)]	17200	12600	18000	–
SHSSFYQYYLDN [A310 (Gal-4 fusion)]	4460	3590	4770	–
DSQYSSFSRYYK [A47 (Gal-4 fusion)]	–	–	21	–
NTTDTLFSQHYR [B32 (Gal-4 fusion)]	–	–	41	–
SSFADLWRNEAT [C314 (Gal-4 fusion)]	121	859	1140	–
EASNSSFARLFH [B426 (Gal-4 fusion)]	1510	9550	13500	–
SSGGFERFYIAQ [A41 (Gal-4 fusion)]	3510	3060	4310	–
PAPKFKEFFYAE [A43 (Gal-4 fusion)]	8300	7350	8840	–
HNTKFSTFYNMD [B37 (Gal-4 fusion)]	8710	6240	9160	–
HASPFEMHYLLG [HF-26 (Gal-4 fusion)]	8900	8400	8900	–
SPTPHFTRLFHY [B310 (Gal-4 fusion)]	6720	12100	17800	–
SPFEEHYLSTQS [B34 (Gal-4 fusion)]	–	37	42	–
KTRYIFDLFYKRKAY [BUD31 peptide (Gal-4 fusion)]	4870	12000	8940	–
SKFSQLYSYEPP [B49 (Gal-4 fusion)]	318	1030	1790	–
VLPGSTFERFYR [A49 (Gal-4 fusion)]	–	26	25	–
HTSMFESFFRKE [HF-15 (Gal-4 fusion)]	14500	13900	11500	–
TEPPAAFRQLFF [C317 (Gal-4 fusion)]	4380	5230	6600	–
HPTHSSRLWELLMEATPTM [D30 (Gal-4 fusion)]	8800	18100	19900	–
SPTRLFDHLYMT [B423 (Gal-4 fusion)]	168	401	1220	–
HKASPFNYYYLN [B311 (Gal-4 fusion)]	–	–	46	–
NPRTPTTFERYY [B414 (Gal-4 fusion)]	–	–	18	–
HPARTSFETHYM [B411 (Gal-4 fusion)]	16	–	13	–
RGAFQNLFQSV [ARN20 (Gal-4 fusion)]	1420	1580	1310	–
STFESLYNNMTA [C33 (Gal-4 fusion)]	399	1020	1330	–
SFYDFYNGASTP [C41 (Gal-4 fusion)]	–	–	23	–
ANSSFRDWYTSS [B46 (Gal-4 fusion)]	1260	376	792	–
DPPTSKFSTFYQ [A48 (Gal-4 fusion)]	–	–	32	–
NTNAFSRLFYPS [#3-18 (Gal-4 fusion)]	–	11000	12500	–
SDSAFSRLYTRS [C320 (Gal-4 fusion)]	4650	12700	13400	–
